From US20020150558A1 (CENTRE NATIONAL DE LA RECHERCHE SCIENTIFIQUE CNRS, published 2002)

B1: synthetic peptide MH20 (peptide)
peptide: RAIVGFRVQWLRRYFVNGSR

How the values were obtained:
[1] = target: class I HLA molecules (MHC-I) at the cell surface (human); experiment: cell-based or functional assay
[2] = target: T1, Ad5Luc3 (adenovirus serotype 5 (Ad5), UniProt P11818 1-581); experiment: cell-based or functional assay
T1 sequence: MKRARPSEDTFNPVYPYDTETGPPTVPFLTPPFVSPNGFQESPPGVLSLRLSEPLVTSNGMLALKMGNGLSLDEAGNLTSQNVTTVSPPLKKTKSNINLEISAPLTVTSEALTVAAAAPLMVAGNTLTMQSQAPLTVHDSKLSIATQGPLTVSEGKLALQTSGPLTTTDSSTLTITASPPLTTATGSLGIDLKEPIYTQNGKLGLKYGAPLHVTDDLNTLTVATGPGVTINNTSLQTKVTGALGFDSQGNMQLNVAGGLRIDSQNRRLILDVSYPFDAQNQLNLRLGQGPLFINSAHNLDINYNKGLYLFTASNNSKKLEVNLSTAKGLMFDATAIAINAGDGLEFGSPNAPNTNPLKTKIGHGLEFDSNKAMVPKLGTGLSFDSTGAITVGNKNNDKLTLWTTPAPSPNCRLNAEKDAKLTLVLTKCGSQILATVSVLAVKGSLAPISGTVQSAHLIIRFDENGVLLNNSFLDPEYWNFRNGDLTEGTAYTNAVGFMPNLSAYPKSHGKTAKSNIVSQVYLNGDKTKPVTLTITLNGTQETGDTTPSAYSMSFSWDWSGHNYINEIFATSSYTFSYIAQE

Molecule | luciferase activity 18 h post-infection, attachment at 0 C; Daudi HLA- cells against Daudi-HLA+ cells (orders of magnitude) [1] | fold decrease in luciferase activity (RLU) in HeLa cells; Ad5Luc3 preincubated with peptide, attachment at 0 C [2]
Ad5Luc3 (from UniProt P11818 1-581) | 3 to 4 | –
B1 | – | 100 fold
